According to IntAct's records for PubMed 19666841:

B1: Glycerol-3-phosphate dehydrogenase 1-like protein (Homo sapiens), Q8N335 (parent)
chain: MAAAPLKVCIVGSGNWGSAVAKIIGNNVKKLQKFASTVKMWVFEETVNGRKLTDIINNDHENVKYLPGHKLPENVVAMSNLSEAVQDADLLVFVIPHQFIHRICDEITGRVPKKALGITLIKGIDEGPEGLKLISDIIREKMGIDISVLMGANIANEVAAEKFCETTIGSKVMENGLLFKELLQTPNFRITVVDDADTVELCGALKNIVAVGAGFCDGLRCGDNTKAAVIRLGLMEMIAFARIFCKGQVSTATFLESCGVADLITTCYGGRNRRVAEAFARTGKTIEELEKEMLNGQKLQGPQTSAEVYRILKQKGLLDKFPLFTAVYQICYESRPVQEMLSCLQSHPEHT

Variants of: B1
Conditions: with scn5a_human SCN5A
In the case of E83K, the “effect of a mutation on the interaction” value is reported as “with no effect”.
A280V was tested, and the “effect of a mutation on the interaction” value was “with no effect”.
